Measured values: patent US20030236190A1 (published 2003)
Starred links: 1 amine or outer side, 2 acyl side, 3 side chain; linkers in the order of their positions; H or OH if unused. Positions of bridges follow the written chain, without caps; N, C: chain ends. Non-standard residues stand in square brackets, D forms with d. Primed or numbered codes have the meaning given here. Chains are numbered I, II in the order given. No end group written: not given here. Lig′ = lysine with a 2-aminohydroxyacetyl group (CO-CH2-O-NH2) on the side-chain amino group, O=C(CON[*:3])NCCCC[C@H](N[*:1])C(=O)[*:2]; Hyp = O=C(O)[C@@H]1C[C@@H](O)CN1; Tic = O=C(O)[C@@H]1Cc2ccccc2CN1; Cha = N[C@@H](CC1CCCCC1)C(=O)O; linker 14 = not defined here; Ac6c = NC1(C(=O)O)CCCCC1; Aic′ = not defined here; Aib = CC(C)(N)C(=O)O

B1: S350 (peptide)
peptide 1: GSLDESFYDWFERQLGKKX
peptide 2: GSLDESFYDWFERQLGKKX
modifications: not fully specified; C-terminal Lig coupled to linker 21
notes: dimer, C-C
B2: S333 (peptide)
peptide 1: XGSLDESFYDWFERQLGKK
peptide 2: XGSLDESFYDWFERQLGKK
modifications: N-terminal Lig′ coupled to linker 22
notes: dimer, N-N
B3: S334 (peptide)
peptide 1: XGGGFHENFYDWFVRQVSKK
peptide 2: XGGGFHENFYDWFVRQVSKK
modifications: N-terminal Lig′ coupled to linker 22
notes: dimer, N-N
B4: S255 (peptide)
peptide 1: SDGFYNAIELLSGGGX
peptide 2: SDGFYNAIELLSGGGX
modifications: not fully specified; C-terminal Lig′ coupled to linker 14
notes: dimer, C-C
B5: S229 (peptide)
peptide 1: SDGFYNAIELLSX
peptide 2: KHLCVLEELFWGASLFGYCSGKKX
modifications: not fully specified; C-terminal Lig′ coupled to linker 12
notes: heterodimer F2-F4, C-C
B6: S354 (peptide)
peptide 1: XGSLDESFYDWFERQLGKK
peptide 2: XGSLDESFYDWFERQLGKK
modifications: N-terminal Lig′ coupled to linker 14
notes: dimer, N-N
B7: S325 (peptide)
peptide 1: XGSLDESFYDWFERQLGKK
peptide 2: XGSLDESFYDWFERQLGKK
modifications: N-terminal Lig′ coupled to linker 9
notes: dimer, N-N
B8: S301 (peptide)
peptide 1: XDWLQRNANFYDWFVAEL
peptide 2: XDWLQRNANFYDWFVAEL
modifications: N-terminal Lig′ coupled to linker 14
notes: dimer, N-N
B9: S233 (peptide)
peptide 1: FHENFYDWFVRQVSKKX
peptide 2: SDGFYNAIELLSX
modifications: not fully specified; C-terminal Lig′ coupled to linker 14
notes: heterodimer F1-F2, C-C
B10: S292 (peptide)
peptide 1: XGGGFHENFYDWFVRQVSKK
peptide 2: XGGGFHENFYDWFVRQVSKK
modifications: not fully specified; N-terminal Lig′ coupled to linker 12
notes: dimer, N-N
B11: S361 (peptide)
peptide 1: GSLDESFYDWFERQLGKKX
peptide 2: GSLDESFYDWFERQLGKKX
modifications: C-terminal Lig′ coupled to linker 24
notes: dimer, C-C
B12: S374 (peptide)
peptide 1: XGSLDESFYDWFERQLGKK
peptide 2: XGSLDESFYDWFERQLGKK
modifications: not fully specified; N-terminal Ald (aldehyde from periodate oxidation of serine) coupled to linker 17
notes: dimer, N-N
B13: S329 (peptide)
peptide 1: XFHENFYDWFVRQVSKK
peptide 2: XFHENFYDWFVRQVSKK
modifications: N-terminal Lig′ coupled to linker 17
notes: dimer, N-N
B14: S290 (peptide)
peptide 1: XGGGFHENFYDWFVRQVSKK
peptide 2: XGGGFHENFYDWFVRQVSKK
modifications: not fully specified; N-terminal Lig′ coupled to linker 7
notes: dimer, N-N
B15: S360 (peptide)
peptide 1: XDWLQRNANFYDWFVAEL
peptide 2: XDWLQRNANFYDWFVAEL
modifications: N-terminal Lig′ coupled to linker 23
notes: dimer, N-N
B16: S293 (peptide)
peptide 1: XGGGFHENFYDWFVRQVSKK
peptide 2: XGGGFHENFYDWFVRQVSKK
modifications: not fully specified; N-terminal Lig′ coupled to linker 13
notes: dimer, N-N
B17: S352 (peptide)
peptide 1: XGGGFHENFYDWFVRQVSKK
peptide 2: XGGGFHENFYDWFVRQVSKK
modifications: N-terminal Lig′ coupled to linker 21
notes: dimer, N-N
B18: S231 (peptide)
peptide 1: FHENFYDWFVRQVSKKGGGX
peptide 2: FHENFYDWFVRQVSKKGGGX
modifications: not fully specified; C-terminal Lig′ coupled to linker 14
notes: dimer, C-C
B19: S335 (peptide)
peptide 1: GSLDESFYDWFERQLGKKX
peptide 2: GSLDESFYDWFERQLGKKX
modifications: not fully specified; C-terminal Lig coupled to linker 22
notes: dimer, C-C
B20: S359 (peptide)
peptide 1: XDWLQRNANFYDWFVAEL
peptide 2: XDWLQRNANFYDWFVAEL
modifications: N-terminal Lig′ coupled to linker 9
notes: dimer, N-N
B21: S218 (peptide)
peptide 1: AFYDWFAKK[Lig′]
peptide 2: AFYDWFAKK[Lig′]
modifications: linker I:10-II:10 via linker 14; not fully specified; reading uncertain
notes: dimer, C-C
B22: S376 (peptide)
peptide 1: XGSLDESFYDWFERQLGKK
peptide 2: XGSLDESFYDWFERQLGKK
modifications: N-terminal Ald coupled to linker 19
notes: dimer, N-N
B23: S362 (peptide)
peptide 1: XGSLDESFYDWFERQLGKK
peptide 2: XGSLDESFYDWFERQLGKK
modifications: N-terminal Lig′ coupled to linker 24
notes: dimer, N-N

target: T1, human insulin receptor (HIR) (human, UniProt P06213 28-1382, limits assumed); assay: 125I-insulin displacement, solubilised HIR
T1 construct: Detergent-solubilised receptor; The natural receptor is an alpha2-beta2 heterotetramer cleaved from one precursor

Row | Kd [nM] | Binder
1 | 130 | RVDWLQRNANFYDWFVAELG [S234]
2 | 830 | WLEHEWAQIQCELYGRGCTY [S285]
3 | 10000 | RMYFSTGAPQNFYDWFVQEWD [S365]
4 | 370 | PLRESRNFYDWFVQQLE [S366]
5 | 100 | DWLQRNANFYDWFVAELG [S236]
6 | 110 | TGHRLGLDEQFYWWFRDALSG [S265]
7 | 470 | B1
8 | 140 | B2
9 | 130 | DWLQRNANFYDWFVAELX (C-terminal Lig′) [S294]
10 | 14000 | RWPNFYGYFESLLTHFS [S257]
11 | 1600 | B3
12 | 1600 | B4
13 | 590 | GIISQSCPESFYDWFAGQVSDPWWC[dW] (cysteine pairing not given here, also called G33; H2CA-4-G9-IGFR) [S326]
14 | 44 | B5
15 | 39 | B6
16 | 630 | GSLDESFYDWFERQLGKK (also called RP9) [S371]
17 | 46 | B7
18 | 640 | B8
19 | 260 | B9
20 | 750 | B10
21 | 190 | IQGWEPFYGWFDDVVAQMFEE [S264]
22 | 7000 | WQGYAWLS [S316]

Row | Kd [nM] | Binder
23 | 5600 | GRVDWLQRNANFYDWFV [S251]
24 | 2200 | B11
25 | 180 | B12
26 | 5700 | SGPFYEE[Ac6c]ELLW[Aib]G (printed: SGPFYEE-Acy-ELLW-Aib-G) [S303]
27 | 19000 | PLCFLQELFGGASLGGYCSG [S262]
28 | 2700 | B13
29 | 900 | B14
30 | 63 | GRVDWLQRNANFYDWFVAEL [S248]
31 | 1800 | DLWFNAKEDMNFYDWFVWQLR [S342]
32 | 11000 | DLRVLCELFGGAYVLGYCSE [S281]
33 | 740 | GRVDWLQRNANFYDWFVAE [S249]
34 | 120 | GSLDESFYDWFERQLGKKKS (not fully specified; printed as GSLDESFYDWFERQLGKKK(S)) [S373]
35 | 860 | SDGFYNA[Ac6c]ELLSG (printed: SDGFYNA-Acy-ELLSG) [S302]
36 | 2000 | NFYDWFVAELG [S243]
37 | 720 | EWRD[Hyp]FYDWFDE[dI][Hyp][dE] (printed: EWRD-Hyp-FYDWFDEi-Hyp-e) [S322]
38 | 2000 | ANFYDWFVAELG [S242]
39 | 53 | VDWLQRNANFYDWFVAELG [S235]
40 | 990 | B15
41 | 120 | B16
42 | 1600 | QLEEEWAGVQCEVYGRECPS [S226]
43 | 870 | D[Aic′]D[Aib]EFYDWFDE[dI]P[dQ] [S319]
44 | 5900 | QAPSNFYDWFVREWDEE [S287]

Row | Kd [nM] | Binder
45 | 9000 | [Ac6c]CLEEWGASL[Tic]QCSG (cysteine pairing not given here) [S256]
46 | 660 | B17
47 | 8900 | GRVDWLQRNANFYDWFVA [S250]
48 | 270 | B18
49 | 1600 | KHLCVLEELFWGASLFGYCSGKK [S331]
50 | 2200 | GRVDWLQRNANFYDWFVAE[Ac6c]G [S306]
51 | 850 | WLQRNANFYDWFVAELG [S237]
52 | 2300 | LDRQFYRYFQDLLVGFM [S260]
53 | 200 | SGSLDESFYDWFERQLGKK [S372]
54 | 98 | B19
55 | 850 | LQRNANFYDWFVAELG [S238]
56 | 700 | B20
57 | 11000 | B21
58 | 160 | B22
59 | 110 | B23
60 | 21000 | GGSFYDD[Ac6c]E[Aib]LW[Aib]G (printed: GGSFYDD-Acy-E-Aib-LW-Aib-G) [S304]
61 | 840 | N[Aib]PFYDE[Ac6c]DE[Cha]W[Aib]G (printed: N-Aib-PFYDE-Acy-DE-Cha-W-Aib-G) [S305]
62 | 1600 | NANFYDWFVAELG [S241]
63 | 450 | RD[Hyp]FYDWFDD[dI] (printed: RD-Hyp-FYDWFDDi) [S268]
64 | 4300 | QSFYDYIEELLGGEWKK [S288]
